Target: MPER25c (spike S2 membrane proximal region peptide) MPER (Severe acute respiratory syndrome coronavirus 2), P0DTC2
Assay: SPR
Details: modification not given

B1: PN19 (spike S2 internal fusion peptide) (peptide)
chain: FGAGAALQIPFAMQMAYRF
With B1 the Kd was 9.44 nM.
